In patent US20160083428A1 (CARMEL HAIFA UNIVERSITY ECONOMIC, published 2016):
Ends that are not written are not given here. * marks the point of attachment. Biotin = O=C1N[C@H]2[C@H](CS[C@H]2CCCCC(=O)*)N1

Target: eukaryotic elongation factor 2 (eEF2) (rat, UniProt P05197 2-858)
Experiment: pull-down from rat brain homogenate with streptavidin agarose, Western blot

B1: peptide 1 (Ac-RRQRYTPFPLGFE-Lys(Biotin)-NH2-OH), peptide derived from the G-H loop of ephrinA4 (peptide)
peptide: Ac-RRQRYTPFPLGFEK(Biotin)
modifications: not fully specified; printed as Ac-RRQRYTPFPLGFE-Lys(Biotin)-NH2-OH
notes: also called pep-ephrinA4; ephrinA4 peptide
binding result: no binding (tested: 20 micrograms)
